The target of series [1] is T1, IRF3(6D) (human, UniProt Q14653 1-427, S386D;S396D;S398D;S402D;T404D;S405D).
T1 sequence: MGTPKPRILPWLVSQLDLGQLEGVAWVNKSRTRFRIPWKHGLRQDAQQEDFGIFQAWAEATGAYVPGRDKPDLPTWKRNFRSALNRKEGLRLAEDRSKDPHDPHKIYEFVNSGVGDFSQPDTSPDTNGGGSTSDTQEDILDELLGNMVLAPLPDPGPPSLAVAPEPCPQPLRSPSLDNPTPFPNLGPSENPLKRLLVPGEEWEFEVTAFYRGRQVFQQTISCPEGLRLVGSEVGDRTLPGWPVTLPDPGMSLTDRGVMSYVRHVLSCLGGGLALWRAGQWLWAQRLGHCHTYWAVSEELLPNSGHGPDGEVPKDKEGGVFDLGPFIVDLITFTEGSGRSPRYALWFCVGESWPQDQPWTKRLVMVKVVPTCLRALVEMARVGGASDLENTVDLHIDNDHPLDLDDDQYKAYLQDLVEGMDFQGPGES
In words: PBM.

Series [2] deals with IRF5(4D) (human, UniProt Q13568-2 1-514, S451D;S453D;S456D;S462D). In words: PBM.
Series [3] concerns the target T1, IRF3(6D). The series can be described thus: EMSA.

B1: C-2 PBM probe (dsDNA)
DNA 1: GCCTAGCACTAACCGAAACCGAAACCTAAGTGCTAGGTCTTGATTCGCTTGACGCTGCTG
DNA 2: CAGCAGCGTCAAGCGAATCAAGACCTAGCACTTAGGTTTCGGTTTCGGTTAGTGCTAGGC
B1: the binding result in series [1] and in series [2] was “binds” throughout.

B2: proximal dimer (2-bp spacer) (dsDNA)
DNA 1: GCACCGCTAACCGAAACCGAAACTGTGC
DNA 2: GCACAGTTTCGGTTTCGGTTAGCGGTGC
With B2, the binding result in series [3] is given as “binds”.

These data come from article PMC5861432.
